Results on one molecule are retold here after patent publication US20140219982A1, “EXOGENOUS OPIOID PEPTIDE-DEGRADING ENZYME” (priority 2011, published 2014).

The assay deals with gliadorphin (YPQPQPF: SEQ ID NO: 2). As to the kind of experiment: Analysis of gliadorphin degradation product by LC-MS. Format: biochemical.

B1: papain (protein, UniProt P00784 134-345, looked up)
Papain: IPEYVDWRQKGAVTPVKNQGSCGSCWAFSAVVTIEGIIKIRTGNLNEYSEQELLDCDRRSYGCNGGYPWSALQLVAQYGIHYRNTYPYEGVQRYCRSREKGPYAAKTDGVRQVQPYNEGALLYSIANQPVSVVLEAAGKDFQLYRGGIFVGPCGNKVDHAVAAVGYGPNYILIKNSWGTGWGENGYIRIKRGTGNSYGVCGLYTSSFYPVKN
notes: protease, commercial (Asahi Food & Healthcare Co., Ltd.)
As for B1, for the setting “LC-MS of degradation product”, the “detection of undegraded 7-mer of gliadorphin” value is listed as “undegraded 7-mer was detected”. Besides, the “direct degradability for exomorphine peptide” value (papain alone, as shown in the examples) was “did not exhibit direct degradability”.
